Results: patent US20060241051A1 (Takeda / Millennium, published 2006)
Square brackets hold non-standard residues; d marks the D form. Ends that are not written are not given here. Phe(3-Cl) = N[C@@H](Cc1cccc(Cl)c1)C(=O)O; Phe(4-Cl) = N[C@@H](Cc1ccc(Cl)cc1)C(=O)O; Phe(4-NH2) = Nc1ccc(C[C@H](N)C(=O)O)cc1; Phe(2-Cl) = N[C@@H](Cc1ccccc1Cl)C(=O)O; 1Nal = N[C@@H](Cc1cccc2ccccc12)C(=O)O; 2Nal = N[C@@H](Cc1ccc2ccccc2c1)C(=O)O; Arg(Me) = CNC(=N)NCCC[C@H](N)C(=O)O; azaGly = NNC(=O)O

B1: Compound No. 246: [D-Tyr1,Nal(2) 3,AzaGly7,Arg(Me)9]MS10 (peptide)
peptide: [dY]N[2Nal]NSF[azaGly]L[Arg(Me)]F-NH2
modifications: N-terminus assumed
SMILES: CNC(=N)NCCC[C@H](NC(=O)[C@H](CC(C)C)NC(=O)NNC(=O)[C@H](Cc1ccccc1)NC(=O)[C@H](CO)NC(=O)[C@H](CC(N)=O)NC(=O)[C@H](Cc1ccc2ccccc2c1)NC(=O)[C@H](CC(N)=O)NC(=O)[C@H](N)Cc1ccc(O)cc1)C(=O)N[C@@H](Cc1ccccc1)C(N)=O
B2: Compound No. 284: [D-Tyr1,D-Asn2,Thr3,AzaGly7,Arg(Me)9]MS10 (peptide)
peptide: [dY][dN]TNSF[azaGly]L[Arg(Me)]F-NH2
modifications: N-terminus assumed
SMILES: CNC(=N)NCCC[C@H](NC(=O)[C@H](CC(C)C)NC(=O)NNC(=O)[C@H](Cc1ccccc1)NC(=O)[C@H](CO)NC(=O)[C@H](CC(N)=O)NC(=O)[C@@H](NC(=O)[C@@H](CC(N)=O)NC(=O)[C@H](N)Cc1ccc(O)cc1)[C@@H](C)O)C(=O)N[C@@H](Cc1ccccc1)C(N)=O
B3: Compound No. 248: [D-Tyr1,Phe(3Cl) 3,AzaGly7,Arg(Me)9]MS10 (peptide)
peptide: [dY]N[Phe(3-Cl)]NSF[azaGly]L[Arg(Me)]F-NH2
modifications: N-terminus assumed
SMILES: CNC(=N)NCCC[C@H](NC(=O)[C@H](CC(C)C)NC(=O)NNC(=O)[C@H](Cc1ccccc1)NC(=O)[C@H](CO)NC(=O)[C@H](CC(N)=O)NC(=O)[C@H](Cc1cccc(Cl)c1)NC(=O)[C@H](CC(N)=O)NC(=O)[C@H](N)Cc1ccc(O)cc1)C(=O)N[C@@H](Cc1ccccc1)C(N)=O
B4: Compound No. 245: [D-Tyr1,Nal(1)3,AzaGly7,Arg(Me)9]MS10 (peptide)
peptide: [dY]N[1Nal]NSF[azaGly]L[Arg(Me)]F-NH2
modifications: N-terminus assumed
SMILES: CNC(=N)NCCC[C@H](NC(=O)[C@H](CC(C)C)NC(=O)NNC(=O)[C@H](Cc1ccccc1)NC(=O)[C@H](CO)NC(=O)[C@H](CC(N)=O)NC(=O)[C@H](Cc1cccc2ccccc12)NC(=O)[C@H](CC(N)=O)NC(=O)[C@H](N)Cc1ccc(O)cc1)C(=O)N[C@@H](Cc1ccccc1)C(N)=O

biological target: T1, human OT7T175 (metastin receptor) (human, UniProt Q969F8 1-398); test: cell-based or functional assay
T1 sequence (Q969F8 whole entry L364H): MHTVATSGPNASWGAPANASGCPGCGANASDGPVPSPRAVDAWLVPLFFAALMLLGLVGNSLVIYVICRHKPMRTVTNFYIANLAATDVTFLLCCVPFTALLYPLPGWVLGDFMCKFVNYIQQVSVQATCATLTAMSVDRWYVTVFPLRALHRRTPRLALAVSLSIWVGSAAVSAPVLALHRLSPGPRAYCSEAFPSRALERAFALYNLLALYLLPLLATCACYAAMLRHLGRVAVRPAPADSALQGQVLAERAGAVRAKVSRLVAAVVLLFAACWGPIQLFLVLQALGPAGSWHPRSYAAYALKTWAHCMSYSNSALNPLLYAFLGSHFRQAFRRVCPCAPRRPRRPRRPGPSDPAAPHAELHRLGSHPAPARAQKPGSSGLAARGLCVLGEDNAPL

| Binder | intracellular Ca ion level-increasing activity (FLIPR) |
| --- | --- |
| B1 | 2 specific activity to metastin (1-54) |
| [dY]NFNSF[azaGly]L[Arg(Me)]F-NH2 [Compound No. 244: [D-Tyr1,Phe3,AzaGly7,Arg(Me)9]MS10] | 1 specific activity to metastin (1-54) |
| [dY][dN]FNSF[azaGly]L[Arg(Me)]F-NH2 [Compound No. 257: [D-Tyr1,D-Asn2,Phe3,AzaGly7,Arg(Me)9]MS10] | 3 specific activity to metastin (1-54) |
| [dY]N[Phe(4-Cl)]NSF[azaGly]L[Arg(Me)]F-NH2 [Compound No. 249: [D-Tyr1,Phe(4Cl) 3,AzaGly7,Arg(Me)9]MS10] | 1 specific activity to metastin (1-54) |
| [dY]N[Phe(2-Cl)]NSF[azaGly]L[Arg(Me)]F-NH2 [Compound No. 247: [D-Tyr1,Phe(2CL) 3,AzaGly7,Arg(Me)9]MS10] | 1 specific activity to metastin (1-54) |
| [dY][dS]WNSF[azaGly]L[Arg(Me)]F-NH2 [Compound No. 287: [D-Tyr1,D-Ser2,AzaGly7,Arg(Me)9]MS10] | 2 specific activity to metastin (1-54) |
| [dY]N[Phe(4-NH2)]NSF[azaGly]L[Arg(Me)]F-NH2 [Compound No. 250: [D-Tyr1,Phe(4NH2) 3,AzaGly7,Arg(Me)9]MS10] | 1 specific activity to metastin (1-54) |
| [dA]NWNSF[azaGly]L[Arg(Me)]F-NH2 [Compound No. 259: [D-Ala1,AzaGly7,Arg(Me)9]MS10] | 1 specific activity to metastin (1-54) |
| B2 | 1 specific activity to metastin (1-54) |
| [dY][dH]WNSF[azaGly]L[Arg(Me)]F-NH2 [Compound No. 288: [D-Tyr1,D-His2,AzaGly7,Arg(Me)9]MS10] | 1 specific activity to metastin (1-54) |
| B3 | 2 specific activity to metastin (1-54) |
| B4 | 1 specific activity to metastin (1-54) |

biological target: T1, human OT7T175 (metastin receptor); test: FMAT competition with Cy-5-labeled metastin (40-54), hOT7T175-expressed CHO cells
Experimental: h0T7T175-Expressed CHO cells were cultured in MEM-α medium (nucleic acid-free) containing 10% dialyzed serum. The medium was removed and the adherent cells were washed with PBS. Then, PBS containing 5 mM EDTA was added and the cells were scraped from a flask with a cell scraper. […] To each well of a 96-Well Black Clear Bottom Plate (Applied Biosystems, Inc.), 10 μL of assay buffer containing 1% dimethylsulfoxide was added to examine total binding, 10 μL of 10 μM non-labeled peptide (having the same amino acid sequence as that of the labeled one) solution diluted with assay buffer to examine non-specific binding, and 10 μL of a test compound diluted with assay buffer to examine the binding inhibition activity of the test compound, respectively. Furthermore, 90 μL each of the cell suspension was dispensed to each well. […] The specific binding is a value obtained by subtracting the non-specific binding from the total binding.

| Binder | IC50 [nM] |
| --- | --- |
| B1 | 7.1 |
| [dY]NFNSF[azaGly]L[Arg(Me)]F-NH2 [Compound No. 244: [D-Tyr1,Phe3,AzaGly7,Arg(Me)9]MS10] | 77 |
| [dY][dN]FNSF[azaGly]L[Arg(Me)]F-NH2 [Compound No. 257: [D-Tyr1,D-Asn2,Phe3,AzaGly7,Arg(Me)9]MS10] | 40 |
| [dY]N[Phe(4-Cl)]NSF[azaGly]L[Arg(Me)]F-NH2 [Compound No. 249: [D-Tyr1,Phe(4Cl) 3,AzaGly7,Arg(Me)9]MS10] | 150 |
| [dY]N[Phe(2-Cl)]NSF[azaGly]L[Arg(Me)]F-NH2 [Compound No. 247: [D-Tyr1,Phe(2CL) 3,AzaGly7,Arg(Me)9]MS10] | 45 |
| [dY][dS]WNSF[azaGly]L[Arg(Me)]F-NH2 [Compound No. 287: [D-Tyr1,D-Ser2,AzaGly7,Arg(Me)9]MS10] | 2.3 |
| [dY]N[Phe(4-NH2)]NSF[azaGly]L[Arg(Me)]F-NH2 [Compound No. 250: [D-Tyr1,Phe(4NH2) 3,AzaGly7,Arg(Me)9]MS10] | 3.7 |
| [dA]NWNSF[azaGly]L[Arg(Me)]F-NH2 [Compound No. 259: [D-Ala1,AzaGly7,Arg(Me)9]MS10] | 250 |
| B2 | 34 |
| [dY][dH]WNSF[azaGly]L[Arg(Me)]F-NH2 [Compound No. 288: [D-Tyr1,D-His2,AzaGly7,Arg(Me)9]MS10] | 0.072 |
| B3 | 58 |
| B4 | 98 |
